Results as given in the nanobody polyreactivity screen of Harvey et al. (2022).

Test: yeast display, Sf9 membrane polyspecificity reagent, FACS + sequencing; frameworks hold sequencing errors
How it was run: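 Nanobodies from a synthetic yeast display library (Saccharomyces cerevisiae BJ5465), induced 36–48 hours with galactose, were stained 1 hour at 4 °C with 10% biotinylated, detergent-solubilized Sf9 membrane reagent, enriched on streptavidin microbeads, then FACS-sorted. Anti-HA (expression) and streptavidin (reagent binding) fluorescence set low and high (top ~1%) gates. Polyreactivity labels come from the gate of origin. Genes were colony-PCR amplified, MiSeq 2 × 250 sequenced and filtered by CDR length.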

Q: Which “polyreactivity (PSR sort gate)” value does the source give for “QVQLVESGGGLVQAGGSLRLICAASGRTFPYNAMGWYRQAPGKEREFVAVISKGGGRTYYADSVKGRFTISRDNAKNTVYLQMNSLKPEDTAVYYCAKRIGLTFWGQGTQVTVSS” here?
A: high polyreactivity

Q: For “QVQLVESGGGLVQAGGSLRLICAASGRTFPYNTMGWYRQAPGKERELVAGISIRGSSTYYADSVKGRFTISRDNAKNTVYLQMNSLKPEDTAVYYCAKRYYGWYGNFDYWGQGTQVTVSS”, which “polyreactivity (PSR sort gate)” value is on record?
A: high polyreactivity

Q: With “QVQLVESGGGLVQAGGSLRLICAASGRTFRGNAKGCYRQAPGKERELVAAISGRGTNTYYADSVKGRFTISRDNAKNTVYLQMNSLKPEDTAVYYCAKVFYSYRDHYDYWGQGTQVTVSS” as the sequence, how does the “polyreactivity (PSR sort gate)” value read?
A: high polyreactivity

Q: With “QVQLVESGGGLVQAGGSLRLICAASGRTFRGYAMGWYRQAPGKERELVAAISVTGSSTNYADSVKGRFTISRDNAKNTVYLQMNSLKPEDTAVYYCNAKRVRYSLSYDYWGQGTQVTVSS” as the sequence, how does the “polyreactivity (PSR sort gate)” value read?
A: high polyreactivity

Q: With “QVQLVESGGGLVQAGGSLRLICAASGRTFRYNAMGWYRQAPGKERELVAAITLGASRTYYADSVKGRFTISRDNAKNTVYLQMNSLKPEDTAVYYCNAVGRRNVDSSLNDYWGQGTQVTVSS” as the sequence, how does the “polyreactivity (PSR sort gate)” value read?
A: low polyreactivity

Q: With “QVQLVESGGGLVQAGGSLRLICAASGRTFTGYTMGWYRQAPGKEREFVAAISSNGGRTYYADSVKGRFTISRDNAKNTVYLQMNSLKPEDTAVYYCAAPYTFWGQGTQVTVSS” as the sequence, how does the “polyreactivity (PSR sort gate)” value read?
A: high polyreactivity

Q: With “QVQLVESGGGLVQAGGSLRLICAASGRTFTRYAMGWYRQAPGKERELVAAITSGDSTYYADSVKGRFTISRDNAKNTVYLQMNSLKPEDTAVYYCAARTSYGYWYRRRYYYWGQGTQVTVSS” as the sequence, how does the “polyreactivity (PSR sort gate)” value read?
A: high polyreactivity

Q: Which “polyreactivity (PSR sort gate)” value does the source give for “QVQLVESGGGLVQAGGSLRLICAASGRTFVPNVMGWYRQAPGKERELVAAITSGGSTYYADSVKGRFTISRDNAKNTVYLQMNSLKPEDTAVYYCAKRTSWKYGYWGQGTQVTVSS” here?
A: high polyreactivity

Q: Which “polyreactivity (PSR sort gate)” value does the source give for “QVQLVESGGGLVQAGGSLRLICAASGRTFYPSVMGWYRQAPGKERELVARIRWSGSSTYYADSVKGRFTISRDNAKNTVYLQMNSLKPEDTAVYYCNARPSWYVLGSSVHSGMGYWGQGTQVTVSS” here?
A: high polyreactivity

Q: Which “polyreactivity (PSR sort gate)” value does the source give for “QVQLVESGGGLVQAGGSLRLICAASGRTFYWNAMGWYRQAPGKERELVAAISDGGGSTYYADSVKGRFTISRDNAKNTVYLQMNSLKPEDTAVYYCNTPDNQDKPYPGYDYWGQGTQVTVSS” here?
A: low polyreactivity

Q: Which “polyreactivity (PSR sort gate)” value does the source give for “QVQLVESGGGLVQAGGSLRLICAASGRTIYIYTMGWYRQAPGKERELVASISWNGGRTYYADSVKGRFTISRDNAKNTVYLQMNSLKPEDTAVYYCAAQYGVYDYLGQGTQVTVSS” here?
A: low polyreactivity

Q: Which “polyreactivity (PSR sort gate)” value does the source give for “QVQLVESGGGLVQAGGSLRLICAASGSIFDYYDMGWYRQAPGKERELVAANNWSGGITYYADSVKGRFTISRDYAKNTVYLQMNSLKPEDTEVYFCAADWYQWVYSSSITSFDYWGQGTQVTVSS” here?
A: low polyreactivity

Q: With “QVQLVESGGGLVQAGGSLRLICAASGSIFFSYAMGSYRQAPGKERELVAGINRSGGSTYADSVKGRFTISRDNAKNTVNLQMTSLKPEDTAVYYCAAKYYSERSRYHYWGQGTQVTVSS” as the sequence, how does the “polyreactivity (PSR sort gate)” value read?
A: low polyreactivity

Q: With “QVQLVESGGGLVQAGGSLRLICAASGSIFGINAMGWYRQAPGKERELVAAITWSGTSTYYADSVKGRFTISRDNAKNTDYLQMNSMKPEDTAVYYCAARVGRGYRTYGYWGQGTQVTVSS” as the sequence, how does the “polyreactivity (PSR sort gate)” value read?
A: high polyreactivity

Q: With “QVQLVESGGGLVQAGGSLRLICAASGSIFGYYAMGWYRQAPGKERELVAGITNSGDTNYADSVKGRFTISRDNAKNTVYLQMNSLKPEDTAVYYCAADGSYQYYYWGQGTQVTVSS” as the sequence, how does the “polyreactivity (PSR sort gate)” value read?
A: low polyreactivity

Q: Which “polyreactivity (PSR sort gate)” value does the source give for “QVQLVESGGGLVQAGGSLRLICAASGSIFINNGMGWYRQAPGKERELVAAINGGDGSTYYADSVKGRFTISRDNAKNTVYLQMNSLKPEDTAVYYCAADQVTYSVEYDYWGQGTQVTVSS” here?
A: low polyreactivity

Q: Which “polyreactivity (PSR sort gate)” value does the source give for “QVQLVESGGGLVQAGGSLRLICAASGSIFRPNAMGWYRQAPGKERELVAAITWSGDSTYYADSVKGRFTISRDNAKNTVYLQMNSLKPEDTAVYYCAADFTYQGSSANDYWGQGTQVTVSS” here?
A: low polyreactivity

Q: With “QVQLVESGGGLVQAGGSLRLICAASGSIFRYAMGWYRQAPGKERELVAAINRSGGSTYYADSVKGRFTISRDNAKNTVYLQMNSLKTEDTEVYYCAKDLRYGVNYRLVNRYGYWGQGTQVTVSS” as the sequence, how does the “polyreactivity (PSR sort gate)” value read?
A: high polyreactivity

Q: With “QVQLVESGGGLVQAGGSLRLICAASGSIFRYYAMGWYRQAHGKERELLAAISYSGGSTYYADSVKGRFTISRDNAKNTVYLQMNSLKPEDTAVYYCAKGRHTTRASIAFNYWGQGTQVTVSS” as the sequence, how does the “polyreactivity (PSR sort gate)” value read?
A: high polyreactivity

Q: With “QVQLVESGGGLVQAGGSLRLICAASGSIFRYYAMGWYRQAPGKERELVATISWSGGGTYYADSVKGRFTISRHNAKNTVYLQMNSLKPEDTAVYYCAADYGEQYVYWGQGTQVTVSS” as the sequence, how does the “polyreactivity (PSR sort gate)” value read?
A: low polyreactivity

Q: For “QVQLVESGGGLVQAGGSLRLICAASGSIFSRNAMGWYRQAPGKERELVASISWSSDITNYADSGKGRFTISRDNAKNTVYLEMNSLKAEDTAVYYCNVDGLLGERFSWGYDYWRQGTQVTVSS”, which “polyreactivity (PSR sort gate)” value is on record?
A: low polyreactivity

Q: Which “polyreactivity (PSR sort gate)” value does the source give for “QVQLVESGGGLVQAGGSLRLICAASGSIFSSYAMGWYRQAPGKERELVAAITSGGSTYYADSVKGRFTISRDNAKNTVYLQMNSLKPEDTAVYYCAARQVRTSKLHMGYWGQGTQVTVSS” here?
A: low polyreactivity

Q: For “QVQLVESGGGLVQAGGSLRLICAASGSIFSWYTMGWYRQAPGKERELVARITTSGGTTRYADSVKGRFTISRDNAKHTAFIQMNSLKPVDTAVYYCAADRSPYWRGYVRYNYWGQGTQVTVSS”, which “polyreactivity (PSR sort gate)” value is on record?
A: high polyreactivity

Q: For “QVQLVESGGGLVQAGGSLRLICAASGSIFVTNGMGWYRQAPGKERELVAAIRWSGDSTYYADSVKGRFTISRDNGKNTVFLLMKSLKPEDTAVYYCAAESFRYIRLNYKYGDYYWGQGTQVTVSS”, which “polyreactivity (PSR sort gate)” value is on record?
A: high polyreactivity

Q: With “QVQLVESGGGLVQAGGSLRLICAASGSIFVYNAMGWYRQAPGKERELVAAISQRGGSTYYADSVKGRFTISRDNAKNTVYLQMNSLKPEDTAVYYCAAGPGDSGDDYWGQGTQVTVSS” as the sequence, how does the “polyreactivity (PSR sort gate)” value read?
A: low polyreactivity

Q: With “QVQLVESGGGLVQAGGSLRLICAASGSIFYIYAMGWYRQAPGKERELVAVIDNSGSTNYADSVKGRFTISRDNAKNTVYLLINSLKPEDTADYYCLKLWLWASYLYDYWGQGTQVTVSS” as the sequence, how does the “polyreactivity (PSR sort gate)” value read?
A: low polyreactivity

Q: Which “polyreactivity (PSR sort gate)” value does the source give for “QVQLVESGGGLVQAGGSLRLICAASGSILSINGMGWYRQAPGKERELVATIDGSDGSTFYADSVKGRFTISRDNAKNTVYLQMNSLKPEDTAVYYCAAENFWQTKEYDYWGQGTQVTVSS” here?
A: low polyreactivity

Q: For “QVQLVESGGGLVQAGGSLRLICAASGSSFSYNPMVWYRQAPGKERELVAAIRTSGGRTYYADSVKGRFTISRDNAKNTVYLQMNSLKPEDTAVYYCAKRWVYSYGYEYWGQGTQVTVSS”, which “polyreactivity (PSR sort gate)” value is on record?
A: high polyreactivity

Q: For “QVQLVESGGGLVQAGGSLRLICAASGSTCVDNAMGGYRPAPGKERELVADISSVGSTYYADYVKGRFTISRDNAKNTVYLQMNTLIPEDTAVYYCNRAGGYRTTFYSWGQGTQVTVSS”, which “polyreactivity (PSR sort gate)” value is on record?
A: high polyreactivity

Q: With “QVQLVESGGGLVQAGGSLRLICAASGSTFAYNTMGWYRPAPGKERELVAAISWRGTRTYYADSVKGRFTISRDNAKNTVYLQMNSLKPEDTAVYYCATKYGISYDYWGLGTQVTVSS” as the sequence, how does the “polyreactivity (PSR sort gate)” value read?
A: high polyreactivity

Q: For “QVQLVESGGGLVQAGGSLRLICAASGSTFCRYAMGRDRQARGKEMELVAAISTRGGSTRYADSVKGRFTISRDYAKYTVYLLINRLKPEDTGVYYCDALGQGRTSATSFVDYEYWGQGTQVTVSS”, which “polyreactivity (PSR sort gate)” value is on record?
A: high polyreactivity

Q: Which “polyreactivity (PSR sort gate)” value does the source give for “QVQLVESGGGLVQAGGSLRLICAASGSTFDINAMGWYRQAPGKERELVAAITWRSGRTYYADSVKGRFTISRDNAKNTVYLQMNSLKPEDTAVYYCAADDTSYYIYSYDYWGQGTQVTVSS” here?
A: low polyreactivity

Q: Which “polyreactivity (PSR sort gate)” value does the source give for “QVQLVESGGGLVQAGGSLRLICAASGSTFGEYAMGWYRQAHGKERELVAVITSDDNTYYADSVKGRFTISRDNAKNTVYLQMNSLKPEDTAVYYCAARGYVLARSQQWRREYYWGQGTQVTVSS” here?
A: high polyreactivity

Q: For “QVQLVESGGGLVQAGGSLRLICAASGSTFGGNVMGWYRQAPGKERELVAAINWSGGRTYYADSVKGRFTISRDNAKNTVYLQMNSLKPEDTAVYYCAADGGQNGMNYWGQGTQVTVSS”, which “polyreactivity (PSR sort gate)” value is on record?
A: high polyreactivity

Q: With “QVQLVESGGGLVQAGGSLRLICAASGSTFGIYAMGWFRQAPGKERELVAAISWRGGRTYYADSVKGSFTISRDNAKNNVYLQRNSLKPEDTAVYNCSADYRYLWEGYDYWGQGTQVTVSS” as the sequence, how does the “polyreactivity (PSR sort gate)” value read?
A: low polyreactivity

Q: With “QVQLVESGGGLVQAGGSLRLICAASGSTFGRYAMGWYRQAPGKERELVAGITYGSTYYADSVKGRFTISRDNAKNTVYLQMHSLKPEDTAVYYCAADLSYTSVHGYRSDTLMDYWRQGTQVTVSS” as the sequence, how does the “polyreactivity (PSR sort gate)” value read?
A: low polyreactivity

Q: With “QVQLVESGGGLVQAGGSLRLICAASGSTFGYYTMGWYRQAPGKERELVAAITWSGGSTYYADSVKGRFTISRDYANNTVYLQMNSLKPEDTAVYYCAADDYWTPFGYWGQGTQVTVLS” as the sequence, how does the “polyreactivity (PSR sort gate)” value read?
A: low polyreactivity

Q: With “QVQLVESGGGLVQAGGSLRLICAASGSTFIVYAMGWSRQAPGKEREFVAAISSGDSTKYADSVKGRFTISRDNAKNTVYLQMNSLKPEDTAVYYCAKYGQRSIHSPSLVGYYYWGQGTQVTVSS” as the sequence, how does the “polyreactivity (PSR sort gate)” value read?
A: low polyreactivity

Q: For “QVQLVESGGGLVQAGGSLRLICAASGSTFKRYAMGWYRPAPGNERELVAAISSTGGSTFYADSVKGRFTISRDIAKYTVYLQMNSLKREDTAVYYCKKYRATNSARDYWGQGTQVTVSS”, which “polyreactivity (PSR sort gate)” value is on record?
A: high polyreactivity

Q: Which “polyreactivity (PSR sort gate)” value does the source give for “QVQLVESGGGLVQAGGSLRLICAASGSTFLVNTMGWYRQAPGKERELVAAISYSGGRTYYADSVKGRFTISRDNAKNTVYFQMNSLKPEDTAVYYCAARYYRTRREGVDYWGQGTQVTVSS” here?
A: high polyreactivity

Q: For “QVQLVESGGGLVQAGGSLRLICAASGSTFNGNDRGWYRQAPGKERELVATISDGGRTYYADSVKGRFTISRDNAKITVYLQMNSLKPEDTAVYYCAAPVYVPRAWFYYWGQGTQVTVSS”, which “polyreactivity (PSR sort gate)” value is on record?
A: low polyreactivity
